Assay results from patent US20250057128A1, “HUMANIZED MOUSE MODELS” (The Jackson Laboratory, priority 2021, published 2025).

System: NSG-SGM3×IL15 mice humanized with human PBMCs
Assay: Cytokine release syndrome (CRS) induction in PBMC-humanized mice, serum cytokine levels
Format: in vivo, mouse
From the text: FIGS. 9A-9C show comparisons of TNF (FIG. 9A), IL-6 (FIG. 9B), and IL-2 (FIG. 9C) levels in NSG-SGM3 mice and NSG-SGM3×IL15 mice engrafted with 5×10^6 human PBMCs per mouse.
FIGS. 10A-10C show comparisons of IFN-γ (FIG. 10A), TNF (FIG. 10B), and IL-6 (FIG. 10C) levels in NSG-SGM3 mice and NSG-SGM3×IL15 mice engrafted with 1×10^6 or 2×10^6 human PBMCs per mouse, with two different doses of irradiation (150 and 175 cGy).
NSG-SGM3×IL15 and NSG-SGM3 mice humanized with human PBMCs and then dosed with various drugs to induce cytokine release syndrome (CRS). Briefly, the mice were irradiated (100 cGy) and administered PBS, OKT3, Anti-CD28, or a CD19×CD3 BiTE.
The use of lower levels of PBMCs for humanization was also tested. Briefly, NSG-SGM3×IL15 and NSG-SGM3 mice were irradiated (150 cGy or 175 cGy) and administered human PBMCs intravenously (1×10^6/mouse or 2×10^6/mouse) on day 0. On day 12, mice were dosed with PBS or OKT3 and serum cytokine levels were analyzed.

OKT3: drug dosed to induce cytokine release syndrome; known to induce cytokine release
serum cytokine levels (TNF, IL-6, IL-2) (NSG-SGM3×IL15 mice as compared to NSG-SGM3 mice, irradiated 100 cGy, 5×10^6 human PBMCs per mouse, FIGS. 9A-9C): higher cytokine levels
serum cytokine levels (IFN-γ, TNF, IL-6) (irradiated 150 cGy or 175 cGy, 1×10^6 or 2×10^6 human PBMCs per mouse, dosed on day 12, drug vs PBS control, FIGS. 10A-10C): greater difference between the drug (OKT3) and control (PBS)
